Source: patent publication US8067371

Legend:
[1] = target: RAGE 82G/82S on human mononuclear phagocytes of heterozygous subjects (human) (UniProt Q15109); test: cell-based or functional assay
[2] = target: human RAGE 82S (variant allele, G82S) (human) (UniProt Q15109); test: cell-based or functional assay
[3] = target: human RAGE 82G (common allele, full-length) (human) (UniProt Q15109); test: cell-based or functional assay
[4] = target: human RAGE 82S (variant allele, G82S) (human) (UniProt Q15109); test: radioligand binding of 125I-EN-RAGE on stably transfected CHO cells, equilibrium analysis by Klotz and Hunston
[5] = target: human RAGE 82G (common allele, full-length) (human) (UniProt Q15109); test: as above

B1: EN-RAGE (Extracellular Newly-Identified RAGE binding protein) (ligand, from a related filing)
chain: TKLEDHLEGIINIFHQYSVRVGHFDTLNKRELKQLITKELPKTLQNTKDQPTIDKIFQDLDADKDGAVSFEEFVVLVSRVLKTAHIDIHK
EN-RAGE-mediated MMP-9 activity, MPs bearing RAGE 82G/82S against RAGE 82G [1]: 1.9 fold
IL-6 in EN-RAGE-stimulated MPs, RAGE 82G/82S compared with RAGE 82G [1]: 2.9 fold
IL-6 in culture supernatant (ELISA), human MPs bearing RAGE 82G/82S exposed to EN-RAGE [1]: 160 pg/mL
MMP-9 activity (zymography), human MPs bearing RAGE 82G/82S, EN-RAGE against baseline [1]: 4.3 fold
TNF-alpha in EN-RAGE-stimulated MPs, RAGE 82G/82S compared with RAGE 82G [1]: 1.8 fold
TNF-alpha in culture supernatant (ELISA), human MPs bearing RAGE 82G/82S exposed to EN-RAGE [1]: 850 pg/mL
phosphorylated MEK 1/2, human MPs, EN-RAGE against unstimulated cells [1]: 4.5 fold
phosphorylated p44 and p42 MAP kinases, human MPs, EN-RAGE against unstimulated cells [1]: 4.3 fold
NF-kB gel shift band intensity by EMSA, CHO transfectants, EN-RAGE against BSA [2]: 5.1 fold
RAGE-mediated NF-kB activation, RAGE 82S compared with 82G [2]: 2.1 fold
phosphorylated MEK 1/2 by immunoblotting, CHO transfectants, EN-RAGE 10 ug/ml against BSA [2]: 3.6 fold
phosphorylated p44/42 MAP kinases by immunoblotting, CHO transfectants, EN-RAGE 10 ug/ml against BSA [2]: 4.1 fold
phosphorylation of MEK 1/2, CHO cells with RAGE 82S compared with RAGE 82G [2]: 1.6 fold
phosphorylation of p44/p42 MAP kinases, CHO cells with RAGE 82S compared with RAGE 82G [2]: 2.2 fold
IL-6 in culture supernatant (ELISA), human MPs bearing RAGE 82G exposed to EN-RAGE [3]: 55 pg/mL
MMP-9 activity (zymography), human MPs bearing RAGE 82G, EN-RAGE against basal [3]: 2.3 fold
NF-kB nuclear binding activity by EMSA, CHO transfectants, EN-RAGE against BSA [3]: 2.4 fold
TNF-alpha in culture supernatant (ELISA), human MPs bearing RAGE 82G exposed to EN-RAGE [3]: 470 pg/mL
activation of MEK 1/2, human MPs bearing RAGE 82G, EN-RAGE against unstimulated cells [3]: 2.6 fold
activation of p44/p42 MAP kinases, human MPs bearing RAGE 82G, EN-RAGE against unstimulated cells [3]: 2.3 fold
phosphorylated MEK 1/2 by immunoblotting, CHO transfectants, EN-RAGE 10 ug/ml against BSA [3]: 2.2 fold
phosphorylated p44/42 MAP kinases by immunoblotting, CHO transfectants, EN-RAGE 10 ug/ml against BSA [3]: 1.9 fold
Kd [4]: 77 nM
Kd [5]: 122 nM
